What was measured:
[1] = tested on: T1, PVSGPRHGDGSF (SEQ ID NO: 7)
T1 sequence: PVSGPRHGDGSF

[2] = tested on: His6-Smt3-LTPR-GLP-2 analog fusion protein
[3] = tested on: T2, PLTPRHGDGSF (SEQ ID NO: 6)
T2 sequence: PLTPRHGDGSF

[4] = tested on: T3, ITDPLVPRHGDGS (SEQ ID NO: 8)
T3 sequence: ITDPLVPRHGDGS

[5] = target: T4, His6-Smt3-GLP-2 analog fusion protein
T4 chain: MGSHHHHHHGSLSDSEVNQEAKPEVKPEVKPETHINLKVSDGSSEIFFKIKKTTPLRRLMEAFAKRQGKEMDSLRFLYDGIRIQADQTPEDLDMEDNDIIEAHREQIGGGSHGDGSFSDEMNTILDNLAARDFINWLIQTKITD

thrombin
thrombin cleavage of synthetic peptide, RP-HPLC (C18) [1]: Each of the three peptides was cleaved with thrombin | thrombin cleavage of fusion protein, RP-HPLC (C18) [2]: produced a complete cleaved product without partially cleaved segments after thrombin cleavage | thrombin cleavage of fusion protein, SDS-PAGE [2]: thrombin had only one cleavage site on the His6-Smt3-Linker-GLP-2 analog fusion protein | thrombin cleavage of synthetic peptide, RP-HPLC (C18) [3]: PLTPRHGDGSF was cleaved the most thoroughly | thrombin cleavage of synthetic peptide, RP-HPLC (C18) [4]: Each of the three peptides was cleaved with thrombin

B1: U1p1 protease (protein)
chain: LVPELNEKDDDQVQKALASRENTQLMNRDNIEITVRDFKTLAPRRWLNDTIIEFFMKYIEKSTPNTVAFNSFFYTNLSERGYQGVRRWMKRKKTQIDKLDKIFTPINLNQSHWALGIIDLKKKTIGYVDSLSNGPNAMSFAILTDLQKYVMEESKHTIGEDFDLIHLDCPQQPNGYDCGIYVCMNTLYGSADAPLDFDYKDAIRMRRFIAHLILTDALK
U1p1 protease cleavage of fusion protein, SDS-PAGE [5]: U1p1 protease had only one cleavage cite on the His6-Smt3-GLP-2 analog fusion protein but cleaved far less efficiently than thrombin cleaving a His6-Smt3-Linker-GLP-2 analog fusion protein

— patent US20180118800
